Results: PMC12670495

Target: ANT4044-DOTA (human)
Assay: SPR; Biacore T200, single-cycle kinetics, 25 °C, HBS-EP+; antibody-DOTA captured on a Protein G chip (~50 RU); PSMA as analyte, three-point 2-fold dilution 12.5-50 nM, 40 uL/min; association 200 s, dissociation 1500 s; Langmuir 1:1 fit

Chain of ANT4044-DOTA (human) (heavy, as listed by the source, chain 1 of 2): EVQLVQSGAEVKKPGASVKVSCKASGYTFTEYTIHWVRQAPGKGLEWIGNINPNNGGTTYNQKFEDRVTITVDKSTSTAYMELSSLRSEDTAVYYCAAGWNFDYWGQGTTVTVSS
Chain of ANT4044-DOTA (human) (light, as listed by the source, chain 2 of 2): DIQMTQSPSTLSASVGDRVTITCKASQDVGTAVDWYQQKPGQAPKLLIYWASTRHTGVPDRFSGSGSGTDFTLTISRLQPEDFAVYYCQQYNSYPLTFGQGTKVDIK

cynomolgus PSMA (natural protein)
Kd: 2.68 nM | koff: 0.000187 s⁻¹ | kon: 69700 M⁻¹ s⁻¹
